Experimental data published in article PMC10903754, “o-Vanillin binds covalently to MAL/TIRAP Lys-210 but independently inhibits TLR2” (Journal of Enzyme Inhibition and Medicinal Chemistry, 2024).

Molecular target: the molecule itself
Experiment: turbidity assay; MAL^TIR ~87.5-103 uM in 10 mM HEPES pH 7.5, 150 mM NaCl, 30 °C; filament formation followed by absorbance at 500 nm over time; with or without o-vanillin and analogues

B1: TIR domain of human MAL/TIRAP (MAL^TIR), residues 79-221 (domain or fragment, UniProt P58753 79-221, looked up)
chain: SSRWSKDYDVCVCHSEEDLVAAQDLVSYLEGSTASLRCFLQLRDATPGGAIVSELCQALSSSHCRVLLITPGFLQDPWCKYQMLQALTEAPGAEGCTIPLLSGLSRAAYPPELRFMYYVDGRGPDGGFRQVKEAVMRYLQTLS
notes: MAL (MyD88 adaptor-like protein; TIRAP), human, TIR domain, residues 79-221; construct in the vector pMCSG7; For the NMR work the same construct was 13C-15N labelled and kept in low-salt buffer (10 mM HEPES pH 7.5, 10 mM NaCl); also called WT MAL^TIR; MyD88 adaptor-like protein TIR domain; source: E. coli BL21 (DE3), purified (Ni IMAC, TEV cleavage, SEC Superdex 75)
  binding result: binds
